The text below walks through data of patent US20050037967A1 (RESEARCH DEVELOPMENT FOUNDATION, published 2005).

One assay deals with FLK-1 on PAE/FLK-1 cells. Nature of the assay: cell-based or functional assay.
Assay [1] concerns the target human FLT-1 receptor (VEGFR-1) on PAE/FLT-1 cells (human) (UniProt P17948). Description: cell-based or functional assay.
In assay [2] the target is Flk-1 on murine brain endothelioma bEnd.3 cells (mouse) (UniProt P35918). Nature of the assay: cell-based or functional assay.
Chain of Flk-1 on murine brain endothelioma bEnd.3 cells (mouse) (P35918 20-1345): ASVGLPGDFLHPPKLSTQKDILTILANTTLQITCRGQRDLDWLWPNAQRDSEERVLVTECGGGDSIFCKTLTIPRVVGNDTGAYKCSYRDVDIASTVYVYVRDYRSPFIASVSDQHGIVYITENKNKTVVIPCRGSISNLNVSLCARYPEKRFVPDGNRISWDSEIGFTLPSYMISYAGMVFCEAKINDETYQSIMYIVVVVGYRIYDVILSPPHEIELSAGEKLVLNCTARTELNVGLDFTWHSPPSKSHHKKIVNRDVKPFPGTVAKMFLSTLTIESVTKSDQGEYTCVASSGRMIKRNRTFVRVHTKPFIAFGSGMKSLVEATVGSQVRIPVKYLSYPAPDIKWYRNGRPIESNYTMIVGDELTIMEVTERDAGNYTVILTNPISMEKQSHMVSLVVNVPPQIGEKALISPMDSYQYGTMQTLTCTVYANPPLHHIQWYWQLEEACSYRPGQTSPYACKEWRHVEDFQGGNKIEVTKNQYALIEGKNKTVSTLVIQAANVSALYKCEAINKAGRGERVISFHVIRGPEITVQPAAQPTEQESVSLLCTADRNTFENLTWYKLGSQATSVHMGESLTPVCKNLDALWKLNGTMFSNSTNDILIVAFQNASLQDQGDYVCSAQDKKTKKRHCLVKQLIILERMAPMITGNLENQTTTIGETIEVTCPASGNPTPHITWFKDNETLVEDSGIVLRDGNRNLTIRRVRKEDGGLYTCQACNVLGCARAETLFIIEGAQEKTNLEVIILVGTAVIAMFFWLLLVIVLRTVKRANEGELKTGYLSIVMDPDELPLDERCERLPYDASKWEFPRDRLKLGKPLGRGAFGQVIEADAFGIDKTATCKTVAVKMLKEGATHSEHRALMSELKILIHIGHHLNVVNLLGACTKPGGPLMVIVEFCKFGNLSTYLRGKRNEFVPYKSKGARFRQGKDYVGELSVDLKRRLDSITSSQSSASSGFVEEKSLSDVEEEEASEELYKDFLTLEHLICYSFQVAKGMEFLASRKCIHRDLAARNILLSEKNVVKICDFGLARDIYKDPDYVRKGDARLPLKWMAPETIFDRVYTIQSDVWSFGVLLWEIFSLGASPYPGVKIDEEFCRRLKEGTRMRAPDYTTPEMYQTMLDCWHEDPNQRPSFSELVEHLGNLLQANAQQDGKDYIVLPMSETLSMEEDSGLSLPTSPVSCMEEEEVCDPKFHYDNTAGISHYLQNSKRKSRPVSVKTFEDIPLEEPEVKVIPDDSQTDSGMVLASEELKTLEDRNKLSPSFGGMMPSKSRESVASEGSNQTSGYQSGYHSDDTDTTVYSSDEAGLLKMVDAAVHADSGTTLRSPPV
The target of assay [3] is human kinase domain receptor (KDR, VEGFR-2) on cells (human) (UniProt P35968). Description: cell-based or functional assay.
Chain of human kinase domain receptor (KDR, VEGFR-2) on cells (human) (P35968 20-1356): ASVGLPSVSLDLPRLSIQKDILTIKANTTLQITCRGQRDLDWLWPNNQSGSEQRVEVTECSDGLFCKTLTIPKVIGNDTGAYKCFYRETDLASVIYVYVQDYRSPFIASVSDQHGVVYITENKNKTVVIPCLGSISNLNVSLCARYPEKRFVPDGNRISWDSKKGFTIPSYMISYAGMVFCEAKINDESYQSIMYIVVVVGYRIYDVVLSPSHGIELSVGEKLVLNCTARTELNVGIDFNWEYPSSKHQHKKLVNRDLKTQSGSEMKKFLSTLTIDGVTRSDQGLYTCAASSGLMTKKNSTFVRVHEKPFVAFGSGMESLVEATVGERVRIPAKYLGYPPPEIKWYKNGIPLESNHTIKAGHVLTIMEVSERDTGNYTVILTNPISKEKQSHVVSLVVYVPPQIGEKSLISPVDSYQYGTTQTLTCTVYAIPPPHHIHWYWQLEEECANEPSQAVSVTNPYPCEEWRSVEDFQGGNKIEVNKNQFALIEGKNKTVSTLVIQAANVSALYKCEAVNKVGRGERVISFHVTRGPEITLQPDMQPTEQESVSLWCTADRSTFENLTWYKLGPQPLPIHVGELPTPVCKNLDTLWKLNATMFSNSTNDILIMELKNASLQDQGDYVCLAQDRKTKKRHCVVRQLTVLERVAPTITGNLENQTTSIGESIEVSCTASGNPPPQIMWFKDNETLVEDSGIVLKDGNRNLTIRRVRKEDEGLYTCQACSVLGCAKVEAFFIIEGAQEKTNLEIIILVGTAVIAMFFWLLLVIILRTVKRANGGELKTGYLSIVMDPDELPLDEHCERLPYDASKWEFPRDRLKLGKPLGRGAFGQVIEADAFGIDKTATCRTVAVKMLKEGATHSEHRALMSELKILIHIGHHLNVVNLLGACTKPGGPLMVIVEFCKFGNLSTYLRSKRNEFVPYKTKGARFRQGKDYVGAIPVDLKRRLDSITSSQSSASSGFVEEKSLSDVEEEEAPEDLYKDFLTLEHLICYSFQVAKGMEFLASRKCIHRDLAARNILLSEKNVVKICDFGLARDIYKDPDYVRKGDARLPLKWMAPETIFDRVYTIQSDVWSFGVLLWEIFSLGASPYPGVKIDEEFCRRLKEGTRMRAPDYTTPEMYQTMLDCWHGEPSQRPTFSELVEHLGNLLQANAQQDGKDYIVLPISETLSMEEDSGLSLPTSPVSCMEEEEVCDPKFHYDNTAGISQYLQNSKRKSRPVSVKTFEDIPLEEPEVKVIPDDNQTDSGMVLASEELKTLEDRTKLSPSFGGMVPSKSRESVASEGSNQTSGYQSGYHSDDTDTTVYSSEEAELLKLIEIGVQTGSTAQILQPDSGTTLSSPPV
The target in assay [4] is KDR/Flk-1 on adult bovine aortic arch-derived endothelial cells (ABAE) (bovine). Description: cell-based or functional assay.
In assay [5] the target is Flt-1 on osteoclast precursor cells (RAW 264.7 cells and mouse bone marrow-derived monocytes) (mouse) (UniProt P35969). Nature of the assay: cell-based or functional assay.
The target of assay [6] is T1, soluble mouse Flk-1, purified and biotinylated, expressed in Sf9 cells (mouse, UniProt P35918 20-762).
T1 construct: Captured on NeutrAvidin-coated plates; Only 'soluble' is said of the construct; also called biotinylated mouse flk-1 receptor; flk-1 receptor
T1 sequence (P35918 20-762 limits assumed): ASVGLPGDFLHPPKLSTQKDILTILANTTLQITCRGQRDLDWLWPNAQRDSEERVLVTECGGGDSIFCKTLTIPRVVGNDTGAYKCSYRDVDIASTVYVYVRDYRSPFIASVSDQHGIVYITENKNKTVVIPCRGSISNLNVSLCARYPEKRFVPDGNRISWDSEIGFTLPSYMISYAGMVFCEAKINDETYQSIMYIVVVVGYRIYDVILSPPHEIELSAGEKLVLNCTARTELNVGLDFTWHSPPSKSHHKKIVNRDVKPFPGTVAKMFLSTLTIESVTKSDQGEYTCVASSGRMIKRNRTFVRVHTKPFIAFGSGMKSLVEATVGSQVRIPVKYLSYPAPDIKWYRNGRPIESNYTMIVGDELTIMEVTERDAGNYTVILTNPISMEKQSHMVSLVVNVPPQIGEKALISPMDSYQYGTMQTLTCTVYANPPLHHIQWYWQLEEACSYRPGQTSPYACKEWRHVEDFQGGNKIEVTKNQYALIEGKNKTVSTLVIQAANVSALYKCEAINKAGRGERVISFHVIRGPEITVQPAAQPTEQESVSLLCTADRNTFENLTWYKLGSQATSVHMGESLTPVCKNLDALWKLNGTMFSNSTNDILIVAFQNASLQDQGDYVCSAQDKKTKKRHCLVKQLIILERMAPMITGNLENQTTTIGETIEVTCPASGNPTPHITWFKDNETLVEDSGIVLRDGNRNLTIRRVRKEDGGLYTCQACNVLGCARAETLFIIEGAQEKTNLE
Description: ELISA, biotinylated soluble mouse Flk-1 on NeutrAvidin-coated plates; detection with 2C3.

Chain of human FLT-1 receptor (VEGFR-1) on PAE/FLT-1 cells (human) (P17948 27-1338): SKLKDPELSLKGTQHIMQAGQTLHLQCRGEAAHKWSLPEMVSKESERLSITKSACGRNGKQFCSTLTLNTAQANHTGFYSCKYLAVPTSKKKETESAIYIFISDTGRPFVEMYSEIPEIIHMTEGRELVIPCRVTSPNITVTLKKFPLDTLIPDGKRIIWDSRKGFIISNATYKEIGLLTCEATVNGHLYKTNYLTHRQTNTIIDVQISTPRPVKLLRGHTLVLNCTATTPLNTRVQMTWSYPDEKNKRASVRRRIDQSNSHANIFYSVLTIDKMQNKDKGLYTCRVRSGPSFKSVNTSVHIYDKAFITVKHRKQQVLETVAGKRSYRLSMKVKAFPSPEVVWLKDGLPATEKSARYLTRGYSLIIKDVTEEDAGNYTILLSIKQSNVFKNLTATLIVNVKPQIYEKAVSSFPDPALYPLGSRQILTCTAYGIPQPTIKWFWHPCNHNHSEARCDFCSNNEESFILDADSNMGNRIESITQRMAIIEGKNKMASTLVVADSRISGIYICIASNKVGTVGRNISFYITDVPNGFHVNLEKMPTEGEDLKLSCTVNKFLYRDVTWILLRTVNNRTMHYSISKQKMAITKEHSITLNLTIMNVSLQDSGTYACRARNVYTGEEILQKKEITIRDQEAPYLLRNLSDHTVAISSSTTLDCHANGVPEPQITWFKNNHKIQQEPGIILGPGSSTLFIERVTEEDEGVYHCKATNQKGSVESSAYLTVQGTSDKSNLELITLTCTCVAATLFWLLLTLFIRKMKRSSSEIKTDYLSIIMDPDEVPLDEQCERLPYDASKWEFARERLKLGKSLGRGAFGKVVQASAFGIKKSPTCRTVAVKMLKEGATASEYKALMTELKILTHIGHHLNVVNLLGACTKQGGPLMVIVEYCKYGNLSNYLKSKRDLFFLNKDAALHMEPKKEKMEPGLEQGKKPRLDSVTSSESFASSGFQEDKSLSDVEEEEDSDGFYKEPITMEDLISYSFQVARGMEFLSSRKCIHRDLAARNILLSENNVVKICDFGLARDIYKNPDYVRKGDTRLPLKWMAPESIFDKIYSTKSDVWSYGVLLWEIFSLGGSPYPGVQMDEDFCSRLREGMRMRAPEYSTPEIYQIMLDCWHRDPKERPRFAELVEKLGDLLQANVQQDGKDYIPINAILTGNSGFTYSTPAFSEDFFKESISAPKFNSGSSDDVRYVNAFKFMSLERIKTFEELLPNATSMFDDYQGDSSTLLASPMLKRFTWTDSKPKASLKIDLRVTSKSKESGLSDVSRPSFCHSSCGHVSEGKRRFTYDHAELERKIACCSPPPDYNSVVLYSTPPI
Chain of FLK-1 on PAE/FLK-1 cells (P35968 20-1356): as the sequence (P35968 20-1356) above

On to “GrB/VEGF121 fusion protein (mature granzyme B, G4S tether, VEGF121) (from UniProt P10144 21-247; P15692 27-147)”, for which, in the assay with FLK-1 on PAE/FLK-1 cells, the IC50, clonogenic (colony-forming) assay on PAE/FLK-1 cells was determined as 20 nM and the IC50, cytotoxicity on log-phase PAE/FLK-1 cells, XTT, 72 h was 10 nM. In assay [1], this molecule gave a clonogenic (colony-forming) assay on PAE/FLT-1 cells of over 100 nM and a cytotoxicity on log-phase PAE/FLT-1 cells, XTT, 72 h of over 200 nM.
As to “VEGF121/rGel fusion toxin (VEGF121 at the N-terminus, G4S tether, recombinant gelonin) (from UniProt P15692 27-147; P33186 47-297)”, in assay [2], the IC50 for VEGF121/rGel (nM), cytotoxicity, bEnd3 (log phase) is 1 nM and the Targeting index, bEnd3 (log phase) amounted to 100. For the same molecule, in assay [3], the IC50, cytotoxicity on log-phase PAE/KDR cells, 72 h (bladder tumor comparison experiment) stood at 1 nM; the IC50 for VEGF121/rGel (nM), cytotoxicity, HUVEC (hypoxia) came to 700 nM; the IC50 for VEGF121/rGel (nM), cytotoxicity, HUVEC (normoxia) was determined as 800 nM; the IC50 for VEGF121/rGel (nM), cytotoxicity, PAE/KDR (confluent) came to 30 nM. Also, in assay [3], the IC50 for VEGF121/rGel (nM), cytotoxicity, PAE/KDR (log phase), 72 h turned out to be 0.5 nM; the Targeting index (ratio of IC50 of rGel to VEGF121/rGel), PAE/KDR (log phase) stood at 600; the Targeting index, HUVEC (hypoxia) was 1; the Targeting index, HUVEC (normoxia) is 1. In assay [3], this molecule registered a Targeting index, PAE/KDR (confluent) of 167 and a dose inhibiting tube formation of PAE/KDR cells on Matrigel by 50% of 1 nM. In assay [4], this molecule registered an IC50 for VEGF121/rGel (nM), cytotoxicity, ABAE (log phase) of 0.059 nM and a Targeting index, ABAE (log phase) of 8.9. The IC50, cytotoxicity on PAE/FLK-1 cells, XTT, 72 h with FLK-1 on PAE/FLK-1 cells was 1 nM. In assay [5], this molecule showed an IC50, cytotoxicity on bone marrow-derived monocytes of 10 nM and an IC50, cytotoxicity on dividing RAW cells of 40 nM. In assay [1], this molecule had an IC50 for VEGF121/rGel (nM), cytotoxicity, PAE/FLT-1 (confluent) of over 5000 nM; an IC50 for VEGF121/rGel (nM), cytotoxicity, PAE/FLT-1 (log phase) of 300 nM; a Targeting index, PAE/FLT-1 (confluent) of under 2; a Targeting index, PAE/FLT-1 (log phase) of 1. The molecule also came in with a dose inhibiting tube formation of PAE/Flt-1 cells on Matrigel by 50% in assay [1] of 100 nM.

B1: native human VEGF121 (ligand)
chain: APMAEGGGQNHHEVVKFMDVYQRSYCHPIETLVDIFQEYPDEIEYIFKPSCVPLMRCGGCCNDEGLECVPTEESNITMQIMRIKPHQGQHIGEMSFLQHNKCECRPKKDRARQEKCDKPRR
notes: mature; also called free VEGF121
As to B1, the binding result in assay [6] is on record as “binds”.
